Experiment [1] addresses TNFRs on MR300 cells (human (endogenous in MR300)). Briefly: immunostaining of cells or tissue; competition on adherent MR300 cells (CNGRC-binder): hTNF-Fc (1:50) staining, 1 h at room temperature, Alexa-594 anti-human antibody, with 0.01 to 30 µg/mL unlabeled NGR-hTNF or hTNF; percent of control.
The target of experiment [2] is CD13 (aminopeptidase N), CNGRC-binder isoform, on HUVEC, mesoangioblasts (MB) and MR300 cells (human (endogenous in HUVEC, MB, MR300)) (UniProt P15144).
Sequence of CD13 (aminopeptidase N), CNGRC-binder isoform, on HUVEC, mesoangioblasts (MB) and MR300 cells (human (endogenous in HUVEC, MB, MR300)) (P15144 whole entry, canonical isoform): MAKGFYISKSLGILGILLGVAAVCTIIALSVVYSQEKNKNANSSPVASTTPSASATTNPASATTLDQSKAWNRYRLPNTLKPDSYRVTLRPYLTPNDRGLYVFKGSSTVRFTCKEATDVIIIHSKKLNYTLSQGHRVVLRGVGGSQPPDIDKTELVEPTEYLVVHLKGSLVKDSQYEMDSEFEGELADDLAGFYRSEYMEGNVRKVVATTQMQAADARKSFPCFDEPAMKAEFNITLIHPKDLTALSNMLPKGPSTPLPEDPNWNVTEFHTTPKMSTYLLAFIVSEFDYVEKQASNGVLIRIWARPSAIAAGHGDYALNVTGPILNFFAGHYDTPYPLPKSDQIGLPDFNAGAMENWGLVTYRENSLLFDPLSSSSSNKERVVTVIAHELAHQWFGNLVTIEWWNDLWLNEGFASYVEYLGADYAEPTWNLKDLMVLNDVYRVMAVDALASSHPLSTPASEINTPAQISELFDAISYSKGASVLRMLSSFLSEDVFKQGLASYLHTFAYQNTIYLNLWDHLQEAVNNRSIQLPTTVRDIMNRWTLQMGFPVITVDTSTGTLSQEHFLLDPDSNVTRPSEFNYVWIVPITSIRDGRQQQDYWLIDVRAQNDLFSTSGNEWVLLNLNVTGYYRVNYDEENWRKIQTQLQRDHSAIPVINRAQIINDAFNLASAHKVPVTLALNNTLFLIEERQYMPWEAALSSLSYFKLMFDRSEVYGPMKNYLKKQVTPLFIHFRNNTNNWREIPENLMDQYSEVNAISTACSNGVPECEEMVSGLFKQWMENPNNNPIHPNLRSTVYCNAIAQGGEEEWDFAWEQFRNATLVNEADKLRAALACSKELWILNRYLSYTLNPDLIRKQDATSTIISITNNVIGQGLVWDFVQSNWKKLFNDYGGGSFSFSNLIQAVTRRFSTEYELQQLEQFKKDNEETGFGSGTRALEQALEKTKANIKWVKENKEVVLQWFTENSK

NGR-hTNF (ligand): the IC50 (in general, the concentration needed to halve the response being measured) in experiment [1] worked out at 5 nM. In experiment [2], the phosphorylation of Akt-Ser473 in MR300 cells treated with NGR-hTNF in comparison to hTNF (Kinexus phospho-site screen) was -36%, the phosphorylation of Erk1 in MR300 cells treated with NGR-hTNF in comparison to hTNF (Kinexus phospho-site screen) is -36% and the phosphorylation of Erk2 in MR300 cells treated with NGR-hTNF in comparison to hTNF (Kinexus phospho-site screen) was -35%.

In experiment [1], hTNF (ligand) gave an IC50 of 20 nM.

The record behind these values is article PMC6769691.
